Source: US20210253718A1, “FRIZZLED5 PROTEIN-BINDING AGENTS” (Modmab Therapeutics Corporation, priority 2016, published 2021)

T1: FZD5 CRD (Homo sapiens, UniProt Q13467)
T1 construct: K29-T156; GPI anchor signal (C); expressed in transfected cells; host or cells: CHO cells, lentiviral pLenti-puro
T1 sequence (Q13467 29-156): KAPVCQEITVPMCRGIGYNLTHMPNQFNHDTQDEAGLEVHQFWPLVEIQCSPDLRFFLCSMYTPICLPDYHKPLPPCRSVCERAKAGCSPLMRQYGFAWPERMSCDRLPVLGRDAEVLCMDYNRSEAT

T2: FZD9 CRD (Homo sapiens, UniProt O00144)
T2 construct: G35-A161; GPI anchor signal (C); expressed in transfected cells; host or cells: CHO cells, lentiviral pLenti-puro
T2 sequence (O00144 35-161): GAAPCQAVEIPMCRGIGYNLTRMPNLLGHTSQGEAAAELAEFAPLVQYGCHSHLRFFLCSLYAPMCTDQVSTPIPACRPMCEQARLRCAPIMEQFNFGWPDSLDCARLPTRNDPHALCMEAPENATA


Columns and labels:
ASPC-1 cells = assay: Effect of anti-FZD5 Fabs on proliferation of pancreatic cancer cell lines (percent growth inhibition); type: cell-based, human; conditions: Fab 10 μg/ml
Method: (§1) The effect of presently disclosed anti-FZD5 Fabs on proliferation of RNF43 loss-of-function mutant pancreatic cancer cell lines HPAFII, PATU8988S and ASPC-1; and on pancreatic cancer cell line RWP1, was tested at […] and 10 μg/ml.

HPAFII cells = assay: as above; type: cell-based, human; conditions: for percent growth inhibition, HPAFII 2 μg/ml: Fab 2 μg/ml; for percent growth inhibition, HPAFII 10 μg/ml: Fab 10 μg/ml
Method: as §1

PATU8988S cells [1] = assay: as above; type: cell-based, human; conditions: Fab 10 μg/ml
Method: as §1

RWP1 cells = assay: as above; type: cell-based, human; conditions: Fab 10 μg/ml
Method: as §1

FZD2 CRD = target: T3, FZD2 CRD (Homo sapiens, UniProt Q14332); assay: Flow cytometry of anti-FZD5 Fab binding to CHO cells overexpressing Frizzled CRD
T3 construct: D35-P161; GPI anchor signal (C); expressed in transfected cells; host or cells: CHO cells, lentiviral pLenti-puro
Method: Plasmids: pLCKO lentiviral vector used for knockout (TKO) library construction and expression of individual gRNAs was constructed as described previously (Hart et al., 2015). Briefly, single guide RNA (sgRNA) scaffold was amplified from px330 (Addgene 42230) and cloned into pLKO.TRC005 lentiviral vector (Broad Institute, Cambridge, Mass.) using AgeI/EcoRI restriction sites. BfuAI sites were added at the 5′ end of the sgRNA scaffold for cloning the TKO library or individual gRNA target sequences. Lenti Cas9-2A-BsdR vector used to generate Cas9 stable expression cell lines was constructed as described previously (Hart et al., 2015). Briefly, lentiCRISPR pXPR_001 (Addgene 49535) was modified through removal of the sgRNA scaffold region through NdeI/EcoRI digest and blunt ends generation using Large Klenow Fragment (NEB). 2A-puro was replaced with 2A-BsdR by PCR using the NheI/MluI sites. Each of the 10 human Frizzled cysteine rich domains (CRDs) were cloned into the lentiviral expression plasmid pLenti-puro in the following cassette: FZD_CRD-MYC-GPI.
Flow cytometry: Primary staining of cells was performed by treatment with 200 nM Frizzled profiler Fab. Alexa Fluor 488 AffiniPure F(ab′)2 was used as the secondary antibody (Jackson ImmunoResearch #109-546-097). c-Myc (9E10) IgG1 (primary antibody, Santa Cruz, lot #D0306) and Alexa Fluor 488 IgG (secondary antibody, Life technologies, lot #1458649) were used as controls. Dead cells were excluded by staining with Fixable Viability Dye eFluor 660 (eBioscience, catalogue number 65-0864). All reagents were used as per manufacturer's instructions. Flow cytometry was performed on a BD FACSCanto II flow cytometer (BD Biosciences), and data were analyzed with FlowJo software (FlowJo, LLC).
To confirm that the FZD5-WNT7B circuit is not driven simply by expression and rule out the possibility of a disconnect between RNA and protein levels for the Wnt receptors in HPAF-II cells, a panel of recombinant Fabs were generated, alternatively referred to herein as ‘Frizzled profiler’, that can detect and discriminate all but one of the ten Frizzled receptors. […] To characterize the binding specificity of these Fabs on cells, a panel of 10 CHO cell lines was generated, each expressing the CRD domain of a different myc-tagged Frizzled family member anchored at the plasma membrane through a GPI anchor (CHO-myc-FZDGPI). Despite the high sequence identity between Frizzled family members (FIG. 7A, FIG. 7B), selective Fabs were identified for FZD4, FZD5, FZD6 and FZD10 as assessed by immunofluorescence and flow cytometry (FIG. 7D and FIG. 8). […] The FZD8 CRD is most homologous to that of FZD5 (FIG. 7B). These Fabs can be used to discriminate expression of FZD1, FZD2, FZD4, FZD5, FZD6, FZD7, FZD8, FZD9 and FZD10 (FIG. 7D and FIG. 8). The ‘Frizzled profiler’ therefore consists of 10 different Fabs that can be used to discriminate expression of 9 different Frizzled family members. The Frizzled profiler was then used to confirm that HPAF-II cells express FZD1, FZD5, FZD6 and possibly FZD8 (FIG. 7E).
(§2) The binding of anti-FZD5 Fabs to cell surface-expressed Frizzled protein was further determined for each member of the Frizzled family via flow cytometry and immunofluorescence analysis of a panel of 10 CHO cell lines, each ectopically over-expressing the extracellular cysteine-rich domain (CRD) of a different Frizzled protein family member.

PATU8988S cells [2] = assay: Effect of anti-FZD5 Fabs on proliferation of pancreatic cancer cell lines (percent growth inhibition); type: cell-based, human; conditions: Fab 2 μg/ml
[3] = tested on: CHO cells not expressing Frizzled CRD; assay: Flow cytometry of anti-FZD5 Fab binding to CHO cells not expressing Frizzled CRD (background)
Description: as §2

FZD1 CRD = target: T4, FZD1 CRD (Homo sapiens, UniProt Q9UP38); assay: Immunofluorescence of anti-FZD5 Fab binding to CHO cells overexpressing Frizzled CRD; design: key: −: no binding; +: very weak binder; ++: weak binder; +++: good binder; ++++: very good binder
T4 construct: D112-P238; GPI anchor signal (C); expressed in transfected cells; host or cells: CHO cells, lentiviral pLenti-puro
Procedure, shortened: (§3)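 First, ten CHO cell lines were made, each lentivirally expressing a different human Frizzled CRD tagged with myc and tethered by GPI. Next, anti-FZD5 Fabs were added to each line. Finally, binding was assessed by immunofluorescence and flow cytometry.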

FZD5 CRD = target: T1, FZD5 CRD; assay: as above; design: key: −: no binding; +: very weak binder; ++: weak binder; +++: good binder; ++++: very good binder
Procedure, shortened: as §3

FZD9 CRD = target: T2, FZD9 CRD; assay: as above; design: key: −: no binding; +: very weak binder; ++: weak binder; +++: good binder; ++++: very good binder
Procedure, shortened: as §3

Median fluorescence, Frizzled CRD overexpressed on CHO cells: FZD2 (FZD2 CRD)	Immunofluorescence binding, Frizzled CRD overexpressed on CHO cells: FZD1 (FZD1 CRD)	Immunofluorescence binding, Frizzled CRD overexpressed on CHO cells: FZD5 (FZD5 CRD)	Immunofluorescence binding, Frizzled CRD overexpressed on CHO cells: FZD9 (FZD9 CRD)	Molecule	percent growth inhibition, ASPC-1 10 μg/ml (ASPC-1 cells) [%]	percent growth inhibition, HPAFII 2 μg/ml (HPAFII cells) [%]	percent growth inhibition, HPAFII 10 μg/ml (HPAFII cells) [%]	percent growth inhibition, PATU8988s 10 μg/ml (PATU8988S cells [1]) [%]	percent growth inhibition, RWP1 10 μg/ml (RWP1 cells) [%]	percent growth inhibition, PATU8988s 2 μg/ml (PATU8988S cells [2]) [%]	Median fluorescence, Frizzled CRD overexpressed on CHO cells: None [3]
10.65	++	++++	−	Fab-2925: anti-FZD5 Fab with antibody variable region Fv-2925; CDR SEQ ID NOs: 35, 36, 64, 102, 140, 172 (antibody, V domains shown) VH: EVQLVESGGGLVQPGGSLRLSCAASGFNLSYSSMHWVRQAPGKGLEWVASIYPSYGSTYYADSVKGRFTISADTSKNTAYLQMNSLRAEDTAVYYCARYGYFGLDYWGQGTLVTVSS VL: DIQMTQSPSSLSASVGDRVTITCRASQSVSSAVAWYQQKPGKAPKLLIYSASSLYSGVPSRFSGSRSGTDFTLTISSLQPEDFATYYCQQAWVYASLFTFGQGTKVEIK	−3.44	−11.24	−17.38	−22.86	33.53	−8.12	3.55
9.39	−	++++	−	Fab-2932: anti-FZD5 Fab with antibody variable region Fv-2932; CDR SEQ ID NOs: 35, 36, 71, 108, 147, 153 (antibody, V domains shown) VH: EVQLVESGGGLVQPGGSLRLSCAASGFNISYSYMHWVRQAPGKGLEWVASIYSSYSSTSYADSVKGRFTISADTSKNTAYLQMNSLRAEDTAVYYCARGALDYWGQGTLVTVSS VL: DIQMTQSPSSLSASVGDRVTITCRASQSVSSAVAWYQQKPGKAPKLLIYSASSLYSGVPSRFSGSRSGTDFTLTISSLQPEDFATYYCQQWYGSFALITFGQGTKVEIK	28.62	−0.17	3.21	−8.85	25.69	−14.70	3.59
9.82	+	++++	−	Fab-2933: anti-FZD5 Fab with antibody variable region Fv-2933; CDR SEQ ID NOs: 35, 36, 72, 109, 148, 177 (antibody, V domains shown) VH: EVQLVESGGGLVQPGGSLRLSCAASGFNLYSSYMHWVRQAPGKGLEWVASIYSSYGYTSYADSVKGRFTISADTSKNTAYLQMNSLRAEDTAVYYCARTVRGSKKPYFSGWAMDYWGQGTLVTVSS VL: DIQMTQSPSSLSASVGDRVTITCRASQSVSSAVAWYQQKPGKAPKLLIYSASSLYSGVPSRFSGSRSGTDFTLTISSLQPEDFATYYCQQFWWYASWLFTFGQGTKVEIK	19.44	−14.19	−6.12	−17.17	27.16	6.02	3.92
14.59	−	++++	−	Fab-2928: anti-FZD5 Fab with antibody variable region Fv-2928; CDR SEQ ID NOs: 35, 36, 67, 105, 143, 175 (antibody, V domains shown) VH: EVQLVESGGGLVQPGGSLRLSCAASGFNISYSSIHWVRQAPGKGLEWVASIYPSYSSTYYADSVKGRFTISADTSKNTAYLQMNSLRAEDTAVYYCARYYAMDYWGQGTLVTVSS VL: DIQMTQSPSSLSASVGDRVTITCRASQSVSSAVAWYQQKPGKAPKLLIYSASSLYSGVPSRFSGSRSGTDFTLTISSLQPEDFATYYCQQAFYYPITFGQGTKVEIK	6.27	−17.90	−25.51	−30.22	32.47	−2.11	3.68
6.61	−	++++	−	Fab-2934: anti-FZD5 Fab with antibody variable region Fv-2934; CDR SEQ ID NOs: 35, 36, 73, 110, 149, 155 (antibody, V domains shown) VH: EVQLVESGGGLVQPGGSLRLSCAASGFNISYSYMHWVRQAPGKGLEWVASIYSSSGSTSYADSVKGRFTISADTSKNTAYLQMNSLRAEDTAVYYCARGAIDYWGQGTLVTVSS VL: DIQMTQSPSSLSASVGDRVTITCRASQSVSSAVAWYQQKPGKAPKLLIYSASSLYSGVPSRFSGSRSGTDFTLTISSLQPEDFATYYCQQWYHYGLITFGQGTKVEIK	36.76	3.40	20.44	1.78	0.90	−9.14	3.13
